Changes are numbered by the printed parent chain.
T1: Human CFHL1-Y402H-His (ATX-P-421) (human)
T1 construct: also called human CFHL-1 (Y402H) protein
T1 chain: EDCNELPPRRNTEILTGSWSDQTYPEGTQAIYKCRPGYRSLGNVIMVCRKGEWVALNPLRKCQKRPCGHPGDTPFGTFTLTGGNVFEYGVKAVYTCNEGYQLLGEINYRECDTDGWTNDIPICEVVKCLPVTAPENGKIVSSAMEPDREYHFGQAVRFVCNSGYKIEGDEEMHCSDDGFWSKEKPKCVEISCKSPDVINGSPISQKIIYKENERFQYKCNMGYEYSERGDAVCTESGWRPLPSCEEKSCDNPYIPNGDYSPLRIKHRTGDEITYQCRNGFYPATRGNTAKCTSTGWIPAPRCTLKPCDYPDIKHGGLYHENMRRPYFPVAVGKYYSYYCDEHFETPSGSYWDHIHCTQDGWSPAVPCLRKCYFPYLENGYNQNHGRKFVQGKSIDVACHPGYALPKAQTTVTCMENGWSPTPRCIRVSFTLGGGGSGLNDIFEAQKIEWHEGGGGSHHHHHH

T2: human CFHL3-His (ATX-P-58) (human, UniProt Q02985 19-330)
T2 construct: also called human CFHR3 protein; CFHR3; not shown: C-terminal His tag (and linker)
T2 sequence (looked up): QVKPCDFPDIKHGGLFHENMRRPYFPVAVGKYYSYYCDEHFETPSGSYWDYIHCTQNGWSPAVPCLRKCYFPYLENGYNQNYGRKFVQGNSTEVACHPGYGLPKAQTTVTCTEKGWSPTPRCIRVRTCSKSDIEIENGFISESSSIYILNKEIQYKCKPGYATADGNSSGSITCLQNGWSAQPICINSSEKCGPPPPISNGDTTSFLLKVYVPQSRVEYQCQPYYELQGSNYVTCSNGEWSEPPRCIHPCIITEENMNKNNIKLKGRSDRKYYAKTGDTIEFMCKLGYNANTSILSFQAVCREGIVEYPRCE

B1: ATX-P-582 (antibody, human IgG1, kappa, N297A, V domains shown)
VH: QVQLQESGPGLVKPSGTLSLTCAVSGGSISISKWWSWVRQPPGKGLEWIGEIYHTGSTNYHPSLKSRVTISVDKSKNQFYLKLNSVTAADTAVYYCARDELRLGELSPSLDIWGQGTMVTVSS
VL: DIQMTQSPSSLSASVGDRVTITCRASQNINNYLNWFRQKPGKAPKLLIFAASSLQSGVPSRFSGSESGTDFTLTISSLQPEDFATYYCQQSYSTPLTFGGGTKVEIKR
B2: ATX-P-602 (antibody, human IgG1, kappa, N297A, V domains shown)
VH: not shown
VL: EIVLTQSPGTLSLSPGERATLSCRASQSVSSSYLAWYQQKPGQAPRLLIYGASSRATGIPDRFSGSGSGTQFTLTISSLQSEDFAVYYCQQYGSSPWTFGQGTKVDIKR
B3: ATX-P-570 (antibody, human IgG1, kappa, N297A, V domains shown)
VH: QVQLQESGPGLVKPSETMSLTCTVSGGSFTGYYWSWIRQPPGKGLEWIGYVHYSGGTKSNPSLKSRVTISVDTSKNQFSLKLSSVTAADTAVYYCARERYEWNSYFDYWGQGTLVTVSS
VL: not shown
B4: ATX-P-601 (antibody, human IgG1, kappa, N297A, V domains shown)
VH: QVQLVQSGAEVKKPGASVKVSCKASGYTFTSYYMHWVRQAPGQGLEWMGIINPSGGSTNYAQKFQGRLTMTRDTSTNTVYMELSSLRSEDTAVYYCATDQSGGMDVWGKGTTVTVSS
VL: DIQMTQSPSSLSASVGDRVTITCRASQSINIYLNWYQQKPEKDPKLLIYAASSLQSGVPSRFSGSGSGTDFTLTISNLQPEDFATYYCQQSYSTPITFGQGTRLEIKR
B5: ATX-P-610 (antibody, human IgG1, kappa, N297A, V domains shown)
VH: QVQLQQSGPGLVKSSQTLSITCAISGDSVSSNSAAWNWIRQSPSRGLEWLGRTYYRSKWYNDYALSVKSRIIIKSDTSKNQFSLQLNSVTPEDTAVYYCAREPGIAAPGPFDYWGQGSLVTVSS
VL: DIQMTQSPSSVSASVGDRVTITCRASQGISSWLAWYQQKPGKAPKLLIYAASSLQSGVPSRFSGSGSGTDFTLTISSLQPEDFATYYCQQNYRTPITFGQGTRLEIKR
B6: ATX-P-560 (antibody, human IgG1, kappa, N297A, V domains shown)
VH: QVQLQQSGPGLVKPSQTLSLTCAISGDSVSSNTAAWNWIRQSPSRGLEWLGRTYYRSKWYNDYAVSVKSRITINPDTSKNQFSLQLSSVTPQDTAIYYCASDNWNNGGPGFDPWGQGTLVTVSS
VL: B5 VL with A13T, Y49S, S77T, T85S, N91A, Y92N, R93S, T94F, I96P, L104V
B7: ATX-P-608 (antibody, human IgG1, kappa, N297A, V domains shown)
VH: QVQLQESGPGLVKPSGTLSLTCAVSGGSISSSNWWSWVRQSPGKGLEWIGEIYHTGSTNKKPSLKSRVIISVDKSKNQFSLKLISVNAADTAIYYCARDREGGTTEAFDIWGQGTMVTVSS
VL: EIVMTQSPATLSVSPGERATLSCRASQSVSSNLAWYQQKPGQAPRLLIYGASTRATGIPVRFSGSGSGTQFTLTISSLQSEDFAVYYCQQYDNWRTFGQGTRLEIKR
B8: ATX-P-609 (antibody, human IgG1, kappa, N297A, V domains shown)
VH: QVQLQESGPGLVKPSGTLSLTCAVSGGSISSSNWWSWVRQPPGKGLEWIGEIYHSGSTNYNPSLKSRVTISVDKSKNQFSLKLRSVTAADTAVYYCARDQLSSGPTDAFDIWGQGTMVTVSS
VL: B7 VL with R102K
B9: ATX-P-591 (antibody, V domains shown)
VH: QVQLVQSGAEVKKPGASVKVSCKASGYTFTSYGISWVRQAPGQGLEWMGWISAYNGNTNYAQKLQGRVTMTTDTSTSTAYMELRSLRSDDTAIYYCTRDLRGTAFDYWGQGTPVTVSS
VL: DIQMTQSPSSLSASVGDRVTITCRASQSINTYLNWYQQKPGKAPKLLIYAASSLQSGVPSRFSGSGSGTDFTLTISSLQPEDFATYSCQHSFTTPFTFGPGTKLEIKR
B10: ATX-P-607 (antibody, human IgG1, kappa, N297A, V domains shown)
VH: QVQLVQSGAEVKKPGASVKVSCKASGYTFTSYYMHWVRQAPGQGLEWMGIINPSGGSTSYAQKFQGRVTMTRDTSTNTVYMELSSLRSEDTAVYYCARDPEYSSAFDIWGQGTMVTVSS
VL: B9 VL with V19G, N30R, T31S, S87Y, H90Q, F92Y, T93R, F96V, L104V, E105D
B11: ATX-P-571 (antibody, human IgG1, kappa, N297A, V domains shown)
VH: QVQLQESGPGLVKPSGTLSLTCAVSGGSISSRNWWSWVRQPPGKGLEWIGEIYHGGTTNYNPSLKSRVTISVDKSKNQFSLKLSSVTAADTAVYYCARGGLRLGELSPNAFDIWGQGTMVTVSS
VL: DIQMTQSPSSLSASVGDRVTITCRASQSISSYLNWYQQKPGKAPKVLIYAASSLQSGIPSRFSGSGSGTDFTLTISSLQPEDFATYYCQETYSVPLTFGGGTKVEIKR
B12: ATX-P-597 (antibody, human IgG1, kappa, N297A, V domains shown)
VH: QVQLVQSGAEVKKPGASVKVSCKASGYTFTNYYMQWVRQAPGQGLEWLGIIDPSGGSTTYAQKFQGRVTMTRDTSTSTVHMELRSLRSEDTAVYYCARDEGTDRPGWGYWGQGTLVTVSS
VL: B11 VL with V15I, N34D, Q38R, P40S, V46L, I58V, E90Q, T91S, V94T, E105D
B13: ATX-P-598 (antibody, human IgG1, kappa, N297A, V domains shown)
VH: B11 VH with R32S, P41S, G55S, V86A, G99D, G100R, L106S, P108S, N109D, A110V
VL: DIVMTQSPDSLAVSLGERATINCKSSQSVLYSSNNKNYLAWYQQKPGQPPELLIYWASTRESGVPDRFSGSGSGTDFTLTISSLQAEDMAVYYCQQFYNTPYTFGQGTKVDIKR

Key:
[1] = biological target: T1, Human CFHL1-Y402H-His (ATX-P-421); assay: Carterra LSA biosensor, mAb printed on chip, human CFHL1-Y402H-His at 380 nM
Method: (§1) Experiments were also conducted to determine the reactivity of the CFHR4 antibodies with the human CFHL-1 (Y402H) protein (FIG. 10). The binding experiments were performed on Carterra LSA with a running buffer of PBS pH 7.40, 1% BSA, 0.05% Tween20. Antibodies were covalently printed on an HC30M chip. Chip was activated with 33 mM s-NHS and 133 mM EDC in 100 mM MES pH 5.5 for 7 minutes. Antibodies at 10 mg/ml in acetic acid buffer pH 4.5 were used for printing for 10 min. The printed chip was then quenched with 1 M ethanolamine pH 8.5 for 7 min. For the reactivity assay, ATX-P-421, human CFHL1-Y402H-His, at 380 nM was tested with 5 min association followed by 15 min dissociation. Results were processed and analyzed in Carterra LSA Kinetics Software. The data was referenced with the interstitial reference spots and double-referenced to a buffer cycle, and then the responses (nm) after association were reported. Isotype control was used to determine the cutoff response for positive binding.

[2] = biological target: T2, human CFHL3-His (ATX-P-58); assay: Carterra LSA biosensor, mAb printed on chip, cutoff set by isotype control
Method: as §1, with “CFHR3” for “CFHL-1 (Y402H)”, “9).” for “10).”, “ATX-P-58,” for “ATX-P-421,”, “CFHL3-His,” for “CFHL1-Y402H-His,”, “550” for “380”
as §1

[3] = biological target: T1, Human CFHL1-Y402H-His (ATX-P-421); assay: as above
Method: as §1, with “CFHR3” for “CFHL-1 (Y402H)”, “9).” for “10).”, “ATX-P-58,” for “ATX-P-421,”, “CFHL3-His,” for “CFHL1-Y402H-His,”, “550” for “380”
as §1

[4] = biological target: T2, human CFHL3-His (ATX-P-58); assay: Carterra LSA biosensor, mAb printed on chip, human CFHL3-His at 550 nM
Method: as §1, with “CFHR3” for “CFHL-1 (Y402H)”, “9).” for “10).”, “ATX-P-58,” for “ATX-P-421,”, “CFHL3-His,” for “CFHL1-Y402H-His,”, “550” for “380”

Row | Binder | binding result [1] | binding result [2] | binding result [3] | binding result [4]
1 | B1 | binds | no binding (tested: 550 nM) | – | –
2 | B2 | – | no binding (tested: 550 nM) | no binding (tested: 380 nM) | –
3 | B3 | binds | no binding (tested: 550 nM) | – | –
4 | B4 | – | no binding (tested: 550 nM) | no binding (tested: 380 nM) | –
5 | B5 | – | – | no binding (tested: 380 nM) | binds
6 | B6 | – | no binding (tested: 550 nM) | no binding (tested: 380 nM) | –
7 | B7 | – | – | no binding (tested: 380 nM) | binds
8 | B8 | – | – | no binding (tested: 380 nM) | binds
9 | B9 | binds | no binding (tested: 550 nM) | – | –
10 | B10 | – | no binding (tested: 550 nM) | no binding (tested: 380 nM) | –
11 | B11 | binds | no binding (tested: 550 nM) | – | –
12 | B12 | – | no binding (tested: 550 nM) | no binding (tested: 380 nM) | –
13 | B13 | – | no binding (tested: 550 nM) | no binding (tested: 380 nM) | –
